The values that follow come from paper PMC3954636.

The target in this test is hemagglutinin (HA) of human H7N9 influenza A virus A/Shanghai/2/2013 (influenza A virus A/Shanghai/2/2013 (H7N9)). The test is described as follows: crystal structure.

As for “hemagglutinin (HA) of human H7N9 influenza A virus A/Shanghai/2/2013 (natural protein)”, the stoichiometry N (as a rule, the number of molecules, sites or subunits per partner or assembly) was found to be 3.
